This note sets out measurements from patent publication US20250353921A1 (ASTRIA THERAPEUTICS, published 2025).

Assay [1] deals with Human CD64 (FcγRI), Sino Biological 10256-H08H (human, UniProt P12314 16-288). Description: SPR Biacore 8K+, receptor captured by anti-His, antibody as analyte.
Description: (§1) Measurements were performed on a Biacore 8K+ instrument (Cytiva Life Sciences) using the Biacore 8K+ Control Software and analyzed with the Biacore Insight Evaluation Software (v3.0). […] After each binding event, baseline levels were restored using a regeneration solution on both flow-paths. HBS-EP+pH 7.4 solution were used as running buffer. Data was analyzed using the MCK evaluation method of the Biacore Insight Evaluation Software and kinetic parameters were determined using the 1:1 binding and steady-state affinity methods.
(§2) Each measurement is the mean of three identical replicate conditions.
The target of assay [2] is T1, Human CD16a (176F), Sino Biological 10389-H08H (human, UniProt P08637 17-208).
T1 construct: also called FcγRIIIa176F
Described as above.
Description: as §1, §2

For assay [3], the target named is T2, Human CD16a (F176V), Sino Biological 10389-H08H1 (human, UniProt P08637 17-208).
T2 construct: also called FcγRIIIa176V
T2 sequence (P08637 17-208 F176V limits assumed): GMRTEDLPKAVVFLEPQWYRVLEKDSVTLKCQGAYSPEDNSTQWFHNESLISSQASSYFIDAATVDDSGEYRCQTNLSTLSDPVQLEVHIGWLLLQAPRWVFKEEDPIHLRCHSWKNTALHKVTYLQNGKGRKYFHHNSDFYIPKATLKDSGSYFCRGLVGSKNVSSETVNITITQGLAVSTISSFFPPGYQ
The assay is described as above.
Description: as §1, §2

Assay [4] has as its target T3, Human CD16b (NA2 allotype), Sino Biological 11046-H08H (human, UniProt O75015 17-200).
T3 construct: also called FcγRIIIb
The description is as above.
Description: as §1, §2

For assay [5], the target named is T4, Human CD32a (167 Arg), Sino Biological 10374-H08H (human, UniProt P12318 34-218).
T4 construct: also called FcγRIIa167R
T4 sequence (looked up): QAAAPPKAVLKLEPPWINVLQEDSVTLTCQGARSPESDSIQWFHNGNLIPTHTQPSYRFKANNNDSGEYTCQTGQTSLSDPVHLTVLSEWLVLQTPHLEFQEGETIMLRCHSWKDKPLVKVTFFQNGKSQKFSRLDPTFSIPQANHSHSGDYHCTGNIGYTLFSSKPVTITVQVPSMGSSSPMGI
The description is as above.
Description: as §1, §2

The target of assay [6] is T5, Human CD32a (167 His), Sino Biological 10374-H08H1 (human, UniProt P12318 34-218).
T5 construct: also called FcγRIIa167H
T5 sequence (looked up): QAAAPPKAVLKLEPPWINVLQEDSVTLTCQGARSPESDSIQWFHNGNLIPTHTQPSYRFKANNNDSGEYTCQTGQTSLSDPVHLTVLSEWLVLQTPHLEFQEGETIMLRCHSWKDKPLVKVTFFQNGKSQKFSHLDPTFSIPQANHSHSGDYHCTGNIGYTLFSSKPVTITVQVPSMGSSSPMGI
Described as above.
Description: as §1, §2

Assay [7] concerns the target T6, Human CD32b, Sino Biological 10259-H08H (human, UniProt P31994 43-217).
T6 construct: also called FcγRIIb
T6 sequence (looked up): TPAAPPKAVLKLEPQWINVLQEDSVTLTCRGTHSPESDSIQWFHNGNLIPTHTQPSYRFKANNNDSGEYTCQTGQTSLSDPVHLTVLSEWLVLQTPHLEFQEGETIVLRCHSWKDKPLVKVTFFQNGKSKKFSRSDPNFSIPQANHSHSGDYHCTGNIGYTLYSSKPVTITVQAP
The assay is described as above.
Description: as §1, §2

The target of the next assay is T7, human OX40-ECD-his (human, UniProt P43489 29-214).
T7 construct: whole entry named
T7 sequence: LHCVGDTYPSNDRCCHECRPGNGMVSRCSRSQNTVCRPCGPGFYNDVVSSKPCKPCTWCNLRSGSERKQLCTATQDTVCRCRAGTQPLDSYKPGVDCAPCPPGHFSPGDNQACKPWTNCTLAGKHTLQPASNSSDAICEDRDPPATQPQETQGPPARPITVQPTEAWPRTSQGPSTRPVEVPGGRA
Description: ELISA, scFv supernatant on coated human OX40-ECD-his, anti-c-myc detection.

Assay [8] concerns the target T8, human OX40 (TNFRSF4, CD134) on cells (human, UniProt P43489 29-277).
T8 sequence: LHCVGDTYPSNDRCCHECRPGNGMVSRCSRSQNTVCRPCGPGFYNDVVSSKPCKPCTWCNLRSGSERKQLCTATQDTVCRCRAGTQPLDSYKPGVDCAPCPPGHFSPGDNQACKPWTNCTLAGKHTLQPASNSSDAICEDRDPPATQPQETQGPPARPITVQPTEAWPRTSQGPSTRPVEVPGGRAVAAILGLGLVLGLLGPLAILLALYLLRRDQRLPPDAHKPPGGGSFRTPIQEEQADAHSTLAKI
Description: cell-based or functional assay.

Assay [9] concerns the target T8, human OX40 (TNFRSF4, CD134) on cells. Description: cell-based or functional assay. The source holds these as a separate data set.
Assay [10] shares this target. Description: flow cytometry on Jurkat-NFκB (OX40) cells, detection with anti-human IgG Fc-AF647.

T3 sequence (O75015 17-200 N65S limits assumed): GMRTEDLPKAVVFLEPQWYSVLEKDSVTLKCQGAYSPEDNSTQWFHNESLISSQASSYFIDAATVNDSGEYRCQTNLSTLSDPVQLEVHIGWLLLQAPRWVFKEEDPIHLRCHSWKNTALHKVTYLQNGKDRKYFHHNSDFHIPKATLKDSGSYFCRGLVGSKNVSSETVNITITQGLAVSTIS
T1 sequence (P08637 17-208 limits assumed): as the sequence (P08637 17-208 F176V limits assumed) above, with V160F counted along it
Sequence of Human CD64 (FcγRI), Sino Biological 10256-H08H (P12314 16-288 limits assumed): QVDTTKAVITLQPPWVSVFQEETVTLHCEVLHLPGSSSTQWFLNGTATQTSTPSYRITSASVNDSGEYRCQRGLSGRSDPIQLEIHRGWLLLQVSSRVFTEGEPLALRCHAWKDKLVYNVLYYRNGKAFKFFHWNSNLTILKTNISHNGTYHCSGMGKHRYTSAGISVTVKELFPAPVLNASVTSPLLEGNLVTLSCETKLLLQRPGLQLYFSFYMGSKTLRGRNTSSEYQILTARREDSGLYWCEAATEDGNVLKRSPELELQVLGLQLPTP
Description for human OX40-ECD-his: The binding of scFv clones was assessed by ELISA. Individual E. coli colonies from the second round of selection were picked and grown in 2YT ampicillin medium (96-well deep well plates). ScFv expression was induced by addition of 1 mM of IPTG and incubation ON at 30° C. and 250 RPM. Cells were centrifuged and culture supernatant were used for screening. RIA/EIA plates were coated with either 200 ng/well of human OX40-ECD-his or cynomolgus OX40-ECD-Fc. In order to discriminate potential antibodies selected against the Fc fragment, a plate was also coated with an irrelevant Fc fused antigen. The plates were then blocked with PBS supplemented with 3% Bovine Serum Albumin (BSA). 80 μL of bacteria culture supernatants were then mixed with 20 μl of 3% BSA and added to the blocked plates for 1 hr at room temperature. Bound scFvs were detected using a biotinylated chicken anti-c-myc antibody diluted 1:5000 in PBS-0.3% BSA incubated for 1 hr at RT, followed by staining with the Pierce High Sensitivity Streptavidin-HRP reagent diluted 1:8000 in PBS-0.3% BSA for 30 min at RT. Plates were extensively washed using PBS supplemented with 0.05% Tween 20 between each incubation step. […] Clones that bound specifically to both human and cynomolgus OX40 but not to irrelevant antigen-Fc fusion protein were DNA sequenced.

B1: MAB11 (antibody, human IgG1, kappa)
heavy: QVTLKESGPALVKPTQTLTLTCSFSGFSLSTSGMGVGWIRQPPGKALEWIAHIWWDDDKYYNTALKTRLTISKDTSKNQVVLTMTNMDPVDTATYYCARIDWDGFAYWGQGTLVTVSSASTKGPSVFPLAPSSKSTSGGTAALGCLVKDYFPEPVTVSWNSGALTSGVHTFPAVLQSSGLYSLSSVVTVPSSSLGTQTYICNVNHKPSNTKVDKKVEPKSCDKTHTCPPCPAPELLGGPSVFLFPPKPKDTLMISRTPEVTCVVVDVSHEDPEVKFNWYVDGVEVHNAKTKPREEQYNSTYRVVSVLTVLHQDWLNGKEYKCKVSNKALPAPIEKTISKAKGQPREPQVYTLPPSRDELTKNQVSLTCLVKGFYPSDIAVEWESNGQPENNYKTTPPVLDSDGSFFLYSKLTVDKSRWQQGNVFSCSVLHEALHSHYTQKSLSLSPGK
light: EIVLTQSPATLSLSPGERATLSCRASSSVSYMHWYQQKPGQAPRPWIYATSNRATGIPARFSGSGSGTDYTLTISSLEPEDFAVYYCQQFGAWPWTFGQGTKVEIKRTVAAPSVFIFPPSDEQLKSGTASVVCLLNNFYPREAKVQWKVDNALQSGNSQESVTEQDSKDSTYSLSSTLTLSKADYEKHKVYACEVTHQGLSSPVTKSFNRGEC
notes: IgG1 with M428L and N434S; also called MAB1 Heavy Chain + LS
Regarding B1, the Kd turned out to be 6.3 nM in assay [1]; 246 nM in assay [2]; 221 nM in [3]; 2740 nM in assay [4]; 5430 nM in assay [5]; 3380 nM in [6]. In assay [7], binding was characterised by a dissociation constant (Kd) of 9880 nM.

B2: MAB8 scFv clone (scFv)
scFv: QVTLKESGPALVKPTQTLTLTCSFSGFSLSTSGMGVGWIRQPPGKALEWIAHIWWDDDKYYNTALKTRLTISKDTSKNQVVLTMTNMDPVDTATYYCARIDWDGFAYWGQGTLVTVSSGGGGSGGGGSGGGGSEIVLTQSPATLSLSPGERATLSCRASSSVSYMHWYQQKPGQAPRPWIYATSNRATGIPARFSGSGSGTDYTLTISSLEPEDFAVYYCQQTVAWPWTFGQGTKVEIK
With B2, the binding result in the assay with human OX40-ECD-his is listed as “binds”.

B3: MAB2 scFv clone (scFv)
scFv: QVTLKESGPALVKPTQTLTLTCSFSGFSLSTSGMGVGWIRQPPGKALEWIAHIWWDDDKYYNTALKTRLTISKDTSKNQVVLTMTNMDPVDTATYYCARIDWDGFAYWGQGTLVTVSSGGGGSGGGGSGGGGSEIVLTQSPATLSLSPGERATLSCRASSSVSYMHWYQQKPGQAPRPWIYATSNRATGIPARFSGSGSGTDYTLTISSLEPEDFAVYYCQQFGDPPWTFGQGTKVEIK
With B3, the binding result in the assay with human OX40-ECD-his is reported as “binds”.

B4: MAB6 scFv clone (scFv)
scFv: QVTLKESGPALVKPTQTLTLTCSFSGFSLSTSGMGVGWIRQPPGKALEWIAHIWWDDDKYYNTALKTRLTISKDTSKNQVVLTMTNMDPVDTATYYCARIDWDGFAYWGQGTLVTVSSGGGGSGGGGSGGGGSEIVLTQSPATLSLSPGERATLSCRASSSVSYMHWYQQKPGQAPRPWIYATSNRATGIPARFSGSGSGTDYTLTISSLEPEDFAVYYCQQWETWPWTFGQGTKVEIK
In the case of B4, in the assay with human OX40-ECD-his, the binding result is on record as “binds”.

B5: MAB9 scFv clone (scFv)
scFv: QVTLKESGPALVKPTQTLTLTCSFSGFSLSTSGMGVGWIRQPPGKALEWIAHIWWDDDKYYNTALKTRLTISKDTSKNQVVLTMTNMDPVDTATYYCARIDWDGFAYWGQGTLVTVSSGGGGSGGGGSGGGGSEIVLTQSPATLSLSPGERATLSCRASSSVSYMHWYQQKPGQAPRPWIYATSNRATGIPARFSGSGSGTDYTLTISSLEPEDFAVYYCQAASSSSLEFGQGTKVEIK
As to B5, the binding result with human OX40-ECD-his is reported as “binds”.

B6: MAB7 scFv clone (scFv)
scFv: QVTLKESGPALVKPTQTLTLTCSFSGFSLSTSGMGVGWIRQPPGKALEWIAHIWWDDDKYYNTALKTRLTISKDTSKNQVVLTMTNMDPVDTATYYCARIDWDGFAYWGQGTLVTVSSGGGGSGGGGSGGGGSEIVLTQSPATLSLSPGERATLSCRASSSVSYMHWYQQKPGQAPRPWIYATSNRATGIPARFSGSGSGTDYTLTISSLEPEDFAVYYCQQMEFTPWTFGQGTKVEIK
As to B6, the binding result in the assay with human OX40-ECD-his was “binds”.

B7: MAB3 scFv clone (scFv)
scFv: QVTLKESGPALVKPTQTLTLTCSFSGFSLSTSGMGVGWIRQPPGKALEWIAHIWWDDDKYYNTALKTRLTISKDTSKNQVVLTMTNMDPVDTATYYCARIDWDGFAYWGQGTLVTVSSGGGGSGGGGSGGGGSEIVLTQSPATLSLSPGERATLSCRASSSVSYMHWYQQKPGQAPRPWIYATSNRATGIPARFSGSGSGTDYTLTISSLEPEDFAVYYCQQTIEWPWTFGQGTKVEIK
For B7, in the assay with human OX40-ECD-his, the binding result is reported as “binds”.

B8: MAB5 scFv clone (scFv)
scFv: QVTLKESGPALVKPTQTLTLTCSFSGFSLSTSGMGVGWIRQPPGKALEWIAHIWWDDDKYYNTALKTRLTISKDTSKNQVVLTMTNMDPVDTATYYCARIDWDGFAYWGQGTLVTVSSGGGGSGGGGSGGGGSEIVLTQSPATLSLSPGERATLSCRASSSVSYMHWYQQKPGQAPRPWIYATSNRATGIPARFSGSGSGTDYTLTISSLEPEDFAVYYCQQTLHYPWTFGQGTKVEIK
With B8, the binding result in the assay with human OX40-ECD-his is “binds”.

B9: MAB1 scFv clone (scFv)
scFv: QVTLKESGPALVKPTQTLTLTCSFSGFSLSTSGMGVGWIRQPPGKALEWIAHIWWDDDKYYNTALKTRLTISKDTSKNQVVLTMTNMDPVDTATYYCARIDWDGFAYWGQGTLVTVSSGGGGSGGGGSGGGGSEIVLTQSPATLSLSPGERATLSCRASSSVSYMHWYQQKPGQAPRPWIYATSNRATGIPARFSGSGSGTDYTLTISSLEPEDFAVYYCQQFGAWPWTFGQGTKVEIK
notes: Phage library scFv in bacterial culture supernatant
Turning to B9, the binding result with human OX40-ECD-his is reported as “binds”.

B10: MAB4 scFv clone (scFv)
scFv: QVTLKESGPALVKPTQTLTLTCSFSGFSLSTSGMGVGWIRQPPGKALEWIAHIWWDDDKYYNTALKTRLTISKDTSKNQVVLTMTNMDPVDTATYYCARIDWDGFAYWGQGTLVTVSSGGGGSGGGGSGGGGSEIVLTQSPATLSLSPGERATLSCRASSSVSYMHWYQQKPGQAPRPWIYATSNRATGIPARFSGSGSGTDYTLTISSLEPEDFAVYYCQQTLLFPWTFGQGTKVEIK
With B10, the binding result with human OX40-ECD-his is “binds”.

B11: OX40L (recombinant human OX40 ligand) (ligand, UniProt P23510 51-183, looked up)
chain: QVSHRYPRIQSIKVQFTEYKKEKGFILTSQKEDEIMKVQNNSVIINCDGFYLISLKGYFSQEVNISLHYQKDEEPLFQLKKVRSVNSLMVASLTYKDKVYLNVTTDNTSLDDFHVNGGELILIHQNPGEFCVL
Consider B11, for which, in assay [8], the “luminescence, Jurkat-NFκB-OX40 agonism assay” value was 8 fold. In assay [9], the “average proliferation index (Av), coated T cell agonism assay” value turned out to be 5.61.

B12: OX40L (P865) (Fc fusion, human, UniProt P23510 51-183, looked up)
OX40L-Fc chain: QVSHRYPRIQSIKVQFTEYKKEKGFILTSQKEDEIMKVQNNSVIINCDGFYLISLKGYFSQEVNISLHYQKDEEPLFQLKKVRSVNSLMVASLTYKDKVYLNVTTDNTSLDDFHVNGGELILIHQNPGEFCVL
notes: the sheet prints OX40L (P865) in the legend box and OX40L (P685) beside the curve; also called OX40L-Fc; OX40L (P685)
Consider B12, for which the “EC50 (read off the curve)” value in assay [10] is about 0.2 µg/mL.
